Measured values as given in paper PMC6853915 (Scientific Reports, 2019).

Key:
Conditions in all cases: both partners purified
amyloid-β peptide 1–42 = target: T1, amyloid-β peptide 1–42 (human, UniProt P05067 672-713); test: SPR; cypD held on immobilised Ab(cypD); 17β-HSD10 (100 nM), Aβ1–40 or Aβ1–42 (50-1000 nM, mostly 500 nM) or their mixtures, incubated at 37 °C beforehand (1 hour; or Aβ alone 0-180 min, then 10 min with 17β-HSD10), flowed for 7 or 10 min; HEPES_FINAL (10 mM HEPES, 200 μg/ml BSA, 5 mM Na+, 15 mM K+, 0.1 mM Mg2+, pH 7.4); 25 °C
T1 construct: amyloid-β peptide, residues 1-42 (42 aa), human, cut product of the amyloid precursor protein; numbers count on: the Aβ peptide; Incubated at 37 °C before injection; the authors take it to form oligomers of a size that was not measured; also called Aβ1–42; Aβ_(1–42); source: synthetic peptide; bought: AnaSpec, USA
T1 sequence (P05067 672-713): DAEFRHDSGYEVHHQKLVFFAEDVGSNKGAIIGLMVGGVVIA

amyloid-β peptide 1–40 = target: T2, amyloid-β peptide 1–40 (human, UniProt P05067 672-711); test: as above
T2 construct: amyloid-β peptide, residues 1-40 (40 aa), human, cut product of the amyloid precursor protein; numbers count on: the Aβ peptide; The authors take it to stay monomeric under the conditions used; also called Aβ1–40; Aβ_(1–40); source: synthetic peptide; bought: AnaSpec, USA
T2 sequence (P05067 672-711): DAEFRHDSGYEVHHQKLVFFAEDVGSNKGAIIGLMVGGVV

[1] = target: T3, 17beta-hydroxysteroid dehydrogenase type 10 (human, UniProt Q99714 1-261); test: SPR; cypD held on immobilised Ab(cypD); 100 nM 17β-HSD10 flowed for 7 min; 10 mM HEPES, 200 μg/ml BSA, 5 mM Na+, pH 7.4 or 7.8, with K+ (up to 140 mM), Mg2+ or Ca2+ (up to 2.5 mM) alone or K+ and Mg2+ combined; 25 °C; reference channel without cypD
T3 construct: the oligomeric state was not measured; also called 17β-HSD10; 17beta-hydroxysteroide dehydrogenase 10; source: bought: Fitzgerald, USA (human, recombinant)
T3 sequence (looked up): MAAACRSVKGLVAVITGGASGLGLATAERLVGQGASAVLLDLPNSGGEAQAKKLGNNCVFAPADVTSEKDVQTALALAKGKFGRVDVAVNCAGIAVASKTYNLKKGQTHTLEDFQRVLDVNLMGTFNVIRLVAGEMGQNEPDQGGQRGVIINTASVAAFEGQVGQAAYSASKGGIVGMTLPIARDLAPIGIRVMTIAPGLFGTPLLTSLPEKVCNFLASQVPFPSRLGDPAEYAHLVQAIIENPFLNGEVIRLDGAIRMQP

binding result (amyloid-β peptide 1–42): binds | binding result (amyloid-β peptide 1–40): binds | binding result [1]: binds
B1: cyclophilin D (enzyme)
chain: not shown
notes: cyclophilin D (cypD), human, recombinant; Held on the chip through an immobilised antibody against cypD; also called cypD; source: bought: Fitzgerald, USA (human, recombinant)
